Measurements as given in paper PMC4383751 (Protein & Cell, 2015).

What was measured:
[1] = biological target: the molecule itself; assay: crystal structure; crystals grown at 18°C by hanging-drop vapor diffusion, protein 15-20 mg/mL, in the absence of FBP (malonate for K305Q, L-proline for Y105E)
[2] = biological target: the molecule itself; assay: SEC; gel filtration on Superdex 200 10/300 GL, in the presence of FBP; similar protein concentrations and conditions for all proteins
[3] = biological target: the molecule itself; assay: cell-based or functional assay

B1: PKM2^R399E (a dimeric mutant) (enzyme)
chain: not shown
stoichiometry N [1]: 4

B2: PKM2^K422R (a patient-derived mutation) (enzyme)
chain: not shown
stoichiometry N [2]: 4

B3: PKM2^Y105E (phosphorylation mimic of Y105) (enzyme)
chain: not shown
stoichiometry N [1]: 4

B4: PKM2^K305Q (acetylation mimic of K305) (enzyme)
chain: not shown
stoichiometry N [1]: 4
normalized kcat/Km of pyruvate kinase activity (PKM2^WT as standard) in the presence of FBP [3]: 0.2 relative to kcat/Km of PKM2^WT
stoichiometry N [2]: 2
